Measured values: US20230374526A1, “FORSKOLIN-INDUCIBLE PROMOTERS AND HYPOXIA-INDUCIBLE PROMOTERS” (ASKLEPIOS BIOPHARMACEUTICAL, INC., priority 2020, published 2023)

What was measured:
CHO-GS-KSV1 cell line = test: SEAP expression from forskolin-inducible promoters in stably transfected cell line, forskolin or NKH477 induction; format: cell-based, chinese hamster; conditions: for Promoter strength ranking: SEAP, stably transfected CHO-GS-KSV1
Protocol: The forskolin-inducible promoters were then tested in a stably transfected CHO-GS-KSV1 cell line.
Cell suspensions of 6×10^5 cells per mL were incubated on an orbital shaker set at 8% CO2, 20% O2, 37° C., 85% relative humidity and 140 rpm overnight. 2.86×10^7 cells were centrifuged at 200 g for 3 minutes. Media was then aspirated and cell pellet resuspended in 2 mL fresh CD-CHO media to obtain a concentration of 1.43×10^7 cells per mL. 700 μL of cell suspension was added to each of two electroporation cuvettes each containing […] of linearised DNA in 100 μL of sterile TE buffer (Thermofisher, 12090015). Each cuvette was electroporated, delivering a single pulse of 300V, 900 μF with resistance to infinity. Immediately after delivery of pulse electroplated cells were transferred to Erlenmeyer 125 mL flask containing 20 mL of CD-CHO media pre-warmed to 37° C. Electroporated cells from two cuvettes are combined into a single 125 mL flask to generate one pool of cells. Cells are cultured on an orbital shaker set at 8% CO2, 20% O2, 37° C., 85% relative humidity and 140 rpm. Cells are transferred to fresh CD-CHO media 24 hours after transfection and cell cultures monitored and given fresh CD-CHO media every 2-4 days. Usually after about 10-14 days cell numbers will be high enough to start passaging. […]
The promoter activity and inducibility of FMP-02, FORCSV-10, FOR-CMC-009, and FLP-01 were also tested in the stably transfected CHO-GS-KSV1 cell line. […] After this point, the SEAP activity in the medium was assessed as described below.
SEAP Reporter Gene Assay, chemiluminescent (Roche, CAT #11 779 842 001) was used to measure SEAP activity as per the manufacturer's protocol. […] The signal is then read at 477 nm and compared to a calibration curve. […]

HEK-293 cells = test: Optimum inducer concentration to induce expression; format: cell-based, human
[1] = cited from earlier work
HEK293-F cells = test: Luciferase expression from forskolin-inducible promoters, transient transfection, forskolin induction; format: cell-based, human; conditions: transiently transfected HEK293-F, 20 μM forskolin
Protocol: Luciferase readouts were normalised to β-galactosidase to produce normalised relative luminometer units (RLUs). β-galactosidase containing pcDNA6 plasmid was used as internal control for transfection efficiency (Thermofisher, V22020). β-galactosidase activity was measured as per manufacturer's instructions (Mammalian pGalactosidase Assay Kit, 75707/75710, Thermo Scientific) using 25 μl of lysate. 25 μl of lysate was transferred into a microplate well and mixed with 25 μl of β-galactosidase Assay Reagent, equilibrated to room temperature. The mixture was incubated at 37° C. for 30 min and absorbance measured at 405 nm.
The tested promoters were synthesised directly upstream of the ATG of PM-RQ plasmid and the suspension cell lines were transiently transfected with the PM-RQ plasmid.
40 ml of cells were grown in a 250 ml vented Erlenmeyer flask (Sigma-Aldrich CLS431144) at 37° C., 20% O2, 8% CO2 with agitation at 100 rpm. Cells were seeded as described in the manufacturer's instructions (300,000 cells/ml). HEK293-F were obtained from Thermofisher, R79007.
One day before transfection, the cells were counted using a haemocytometer and split to 500,000 cells/ml. […]
24 hours after transfection, the promoters were induced by addition of 20 μM forskolin and luciferase activity was measured 0, 3, 5 and 24 hours after induction. Luciferase activity was measured as described below. […]

| Molecule | Potency as inducer of the promoters compared with forskolin (CHO-GS-KSV1 cell line; 7.2 μM NKH477 vs 20 μM forskolin) | Concentration determined to be optimum to induce expression (HEK-293 cells) | Water solubility [1] | Promoter strength ranking (fold induction) (HEK293-F cells) | Promoter strength ranking (CHO-GS-KSV1 cell line) |
| --- | --- | --- | --- | --- | --- |
| C=C[C@@]1(C)CC(=O)[C@]2(O)[C@@]3(C)[C@@H](O)CCC(C)(C)[C@@H]3[C@H](OC(=O)CCN(C)C)[C@H](OC(C)=O)[C@@]2(C)O1.Cl [NKH 477] | slightly more potent inducer | about 8 μM | water-soluble | – | – |
| FLP-01: synthetic forskolin-inducible promoter, SEQ ID NO: 42; 8×AP1(1) TFBS with G6PC minimal promoter (nucleic acid, Synp-FLP-01, 8×AP1(1) TFBS with G6PC minimal promoter) DNA: TGAGTCAGATGATGCGTAGCTAGTAGTTGAGTCAGATGATGCGTAGCTAGTAGTTGAGTCAGATGATGCGTAGCTAGTAGTTGAGTCAGATGATGCGTAGCTAGTAGTTGAGTCAGATGATGCGTAGCTAGTAGTTGAGTCAGATGATGCGTAGCTAGTAGTTGAGTCAGATGATGCGTAGCTAGTAGTTGAGTCAGTAGTCGTATGCTGATGCGCAGTTAGCGTAGCTGAGGTACCGTCGACGATATCGGATCCGGGCATATAAAACAGGGGCAAGGCACAGACTCATAGCAGAGCAATCACCACCAAGCCTGGAATAACTGCAGCCACC | – | – | – | strongest | strongest |
| FMP-02: synthetic forskolin-inducible promoter, SEQ ID NO: 41; 8×AP1(1) TFBS with MinTK minimal promoter (nucleic acid, Synp-FMP-02, 8×AP1(1) TFBS with MinTK minimal promoter) DNA: TGAGTCAGATGATGCGTAGCTAGTAGTTGAGTCAGATGATGCGTAGCTAGTAGTTGAGTCAGATGATGCGTAGCTAGTAGTTGAGTCAGATGATGCGTAGCTAGTAGTTGAGTCAGATGATGCGTAGCTAGTAGTTGAGTCAGATGATGCGTAGCTAGTAGTTGAGTCAGATGATGCGTAGCTAGTAGTTGAGTCAGTAGTCGTATGCTGATGCGCAGTTAGCGTAGCTGAGGTACCGTCGACGATATCGGATCCTTCGCATATTAAGGTGACGCGTGTGGCCTCGAACACCGAGCGACCCTGCAGCGACCCGCTTAA | – | – | – | weakest | weakest |
